Measured values taken from US20060153807A1, “Vector-mediated gene regulation in midbrain dopamine neurons” (priority 2005, published 2006).
Positions count from the first letter of the chain named. Numbers in names are those of the source.

B1: RNase A: negative control protein, obtained from Sigma (protein, UniProt P61823 27-150, looked up)
Ribonuclease pancreatic: KETAAAKFERQHMDSSTSAASSSNYCNQMMKSRNLTKDRCKPVNTFVHESLADVQAVCSQKNVACKNGQTNCYQSYSTMSITDCRETGSSKYPNCAYKTTQANKHIIVACEGNPYVPVHFDASV
B2: C106A: DJ-1 cysteine-to-alanine mutant at cysteine 106 (protein, UniProt Q99497 1-189, looked up, variant C106A)
chain: MASKRALVILAKGAEEMETVIPVDVMRRAGIKVTVAGLAGKDPVQCSRDVVICPDASLEDAKKEGPYDVVVLPGGNLGAQNLSESAAVKEILKEQENRKGLIAAIAAGPTALLAHEIGFGSKVTTHPLAKDKMMNGGHYTYSENRVEKDGLILTSRGPGTSFEFALAIVEALNGKEVAAQVKAPLVLKD
B3: C53A: DJ-1 cysteine-to-alanine mutant at cysteine 53 (protein, UniProt Q99497 1-189, looked up, variant C53A)
chain: B2 chain with C53A, A106C

What was measured:
insulin = assay: aggregation suppression of reduced insulin (DTT-induced B chain aggregation); type: biochemical; settings: 20 mM DTT
Description: (§1) FIG. 22 illustrates that DJ-1 is a redox-dependent molecular chaperone. (A) Aggregation of CS was monitored at 43° C. after addition of either 0.8 μM CS alone (black), or along with 8.0 μM RNase A (purple), 0.5 μM DJ-1 (aqua), 2.0 μM DJ-1 (blue), 4.0 μM DJ-1 (red), or 2.0 μM Hsp27 (green). (B) Aggregation of 0.8 μM CS after 30 min at 4° C. […] (C) Aggregation of insulin (26 μM) B chains induced by 20 mM DTT at 25° C. Insulin alone (black) or in the presence of 4.0 μM RNase A (purple), 0.5 μM DJ-1 (aqua), 2.0 μM DJ-1 (blue), 4.0 μM DJ-1 (red), or 2.0 μM Hsp27 (green). (D) CS thermal aggregation (unfilled bar) is suppressed by 4 μM DJ-1 (black bar), but chaperone activity is abrogated upon incubation of DJ-1 with 0.5 mM DTT for 10 min at 4° C. (gray bar). Further treatment of DTT-reduced DJ-1 with 10 mM H2O2 for 10 min at 4° C. leads to reactivation of CS suppression (hatched bar).
(§2) Aggregation assays. CS aggregation was performed in 40 mM HEPES (pH 7.8), 20 mM potassium hydroxinde, 50 mM potassium chloride, and 10 mM ammonium sulfate, and monitored in a thermostat-controlled fluorescence spectrophotometer with excitation and emission wavelengths at 500 nm and slit widths at 2.5 nm. Insulin aggregation was performed as described (Giasson et al. 2000). CS, insulin, RNase A, and GST were obtained from Sigma; human Hsp27 was obtained from Stressgen.

αSyn = αSyn (Homo sapiens, UniProt P37840); assay: αSyn protofibril formation assay in vitro; type: biochemical; settings: 200 μM αSyn, 100 μM test protein (molar ratio 1:2), 2 h at 55° C.
Description: The analysis of DJ-1 chaperone function to a candidate DJ-1 substrate, αSyn (FIG. 23) was extended.
αSyn protofibril and fibril formation assays were performed essentially as described (Uversky et al.). Briefly, protofibrils were formed by incubation of 200 μM WT synuclein with 100 μM DJ-1 or control chaperone protein in PBS for 2 h at 55° C. Samples were mixed with SDS loading buffer and analyzed by SDS-PAGE and Western blotting using αSyn LB509 antibody (Zymed). Quantitation of high molecular weight αSyn was performed using NIH Image J. Integrated pixel intensity of high molecular weight synuclein for each sample was normalized to monomeric synuclein intensity.

citrate synthase (CS) = target: T1, citrate synthase (CS) (Sus scrofa, UniProt P00889); assay: suppression of heat-induced aggregation of citrate synthase (chaperone assay); type: biochemical; settings: for redox regulation: chaperone activity in the CS aggregation assay after DTT: preincubation with 0.5 mM DTT for 10 min at 4° C.; for chaperone activity: suppression of heat-induced CS aggregation: 0.8 μM CS, 43° C., DJ-1 0.5-4.0 μM
T1 construct: purchased Sigma
T1 sequence (P00889 28-464): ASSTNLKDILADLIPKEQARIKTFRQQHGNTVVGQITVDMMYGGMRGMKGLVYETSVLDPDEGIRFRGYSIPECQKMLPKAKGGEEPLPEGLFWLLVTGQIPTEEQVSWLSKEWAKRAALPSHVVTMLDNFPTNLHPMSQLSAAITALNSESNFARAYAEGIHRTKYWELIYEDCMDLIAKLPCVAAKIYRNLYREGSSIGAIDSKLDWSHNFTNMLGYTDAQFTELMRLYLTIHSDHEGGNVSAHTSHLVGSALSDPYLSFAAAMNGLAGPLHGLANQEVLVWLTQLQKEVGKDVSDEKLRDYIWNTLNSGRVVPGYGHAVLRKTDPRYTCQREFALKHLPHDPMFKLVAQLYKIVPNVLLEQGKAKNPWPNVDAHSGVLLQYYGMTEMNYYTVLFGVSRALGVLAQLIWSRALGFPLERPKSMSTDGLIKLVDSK
Description: as §1
To test the redox regulation of DJ-1, the inventors assayed chaperone activity in the CS aggregation assay in the presence or absence of the reducing agent DTT. […] (FIG. 22D). […] To further test whether redox regulation might govern DJ-1 chaperone activity, reactivation studies using reduced DJ-1 were performed. DTT-reduced DJ-1 was incubated with H2O2 (10 mM in aggregation buffer for 10 min at 4° C. followed by dialysis against aggregation buffer for 2 h), and subsequently chaperone activity was measured in the CS thermal aggregation assay. […] This was not an indirect effect of residual H2O2 on CS aggregation, as H2O2 treatment of CS increased aggregation (unpublished data).
as §2

[1] = tested on: glutathione S-transferase (GST); settings: GST 0.4 μM, test protein 2 μM
Description: DJ-1 chaperone activity was quantified in the suppression of heat-induced aggregation of citrate synthase (CS) and glutathione S-transferase (GST), two well-characterized protein chaperone assays. These proteins lose their native conformation and undergo aggregation during incubation at 43° C. and 60° C., respectively.

DJ-1-deficient ES cells = assay: rescue of DJ-1-deficient ES cells from H2O2 toxicity, MTT assay; settings: transient transfection of expression plasmid, 10 μM H2O2 for 15 h, vs vector alone
Description: 48 h after transfection, cells were exposed to 10 μM H2O2 for 15 h and then assayed by MTT reduction. […] Data are shown as the mean±SEM and were analyzed by ANOVA with Fisher's post-hoc test.
(C) DJ-1-deficient ES cells were transiently transfected with vector alone, WT DJ-1, or DJ-1 cysteine mutants, and exposed to 10 μM H2O2 for 15 h followed by MTT assay. […] Data are shown as the mean±SEM and were analyzed by ANOVA with Fisher's post-hoc test. * p<0.05.
ES cells plated in 96-well format (2.3×10^4 cells/well) were treated for 15 hours with H2O2 in ES media deficient in β-mercaptoethanol (Abeliovich et al. 2000). Cell viability (as a percent of untreated control) was determined by MTT assay in triplicate (Fezoui et al. 2000).
The inventors further investigated the activity of the cysteine-mutant forms of human DJ-1 in vivo in the complementation of DJ-1-deficient ES cells.

[2] = tested on: Undifferentiated ES cells; assay: rescue from Q333P mutant NFL toxicity in undifferentiated ES cells, MTT reduction assay; type: cell-based; settings: 72 h after transfection
Description: FIG. 30 depicts the additional studies of DJ-1 mutations. […] Cells from FIG. 4M were quantified via ToPro3 nuclear staining and are expressed as number of cells per field from ten independent fields in each of three wells. […] GFP positive transfected cells from FIG. 5A-5L were quantified and are expressed as number of transfected cells per field from ten independent fields in each of three wells. […] After 72 h, cells were assayed by MTT reduction assay (which detects reduction of 3-(4,5-dimethylthiazol-2-yl)-2,5-diphenyltetrazolium bromide by metabolic enzymes) (Martinat et al. 2004). […] Undifferentiated ES cells were transfected with Q333P mutant NFL along with WT human DJ-1, C53A mutant DJ-1, or vector control. After 72 h, cells were assayed by MTT reduction assay (Martinat et al. 2004). […] Cells were differentiated for 72 h and lysed to produce Triton X-100-soluble and -insoluble fractions. Lysates were exposed to Western blotting with an antibody against transfected human NFL.

Row | Molecule | chaperone activity: suppression of reduced insulin aggregation (insulin) | inhibition of αSyn protofibril formation (αSyn) | redox regulation: chaperone activity in the CS aggregation assay after DTT (citrate synthase (CS)) | suppression of GST thermal aggregation [1] | chaperone activity: suppression of heat-induced CS aggregation (citrate synthase (CS)) | viability of H2O2-treated DJ-1 knockout cells after transfection (DJ-1-deficient ES cells) | rescue from Q333P mutant NFL toxicity [2]
1 | Hsp27: well-described small cytoplasmic chaperone, human Hsp27, obtained from Stressgen; positive control [reference compound] | effectively inhibited the aggregation of insulin | failed to inhibit the generation of αSyn protofibrils | did not modify suppression of CS aggregation | suppressed |  |  | 
2 | B1 | neither DJ-1 nor the negative control protein RNase A displayed chaperone activity |  |  |  | failed to demonstrate chaperone activity |  | 
3 | B2 |  |  | unaffected |  | does not alter the basal activity | robustly rescued DJ-1 knockout cells from H2O2 toxicity | 
4 | B3 |  |  |  |  | completely abrogates chaperone activity | failed to protect from H2O2 toxicity | unable to rescue cells from Q333P mutant NFL toxicity
